T1: E4 Chimeric Receptor
T1 chain: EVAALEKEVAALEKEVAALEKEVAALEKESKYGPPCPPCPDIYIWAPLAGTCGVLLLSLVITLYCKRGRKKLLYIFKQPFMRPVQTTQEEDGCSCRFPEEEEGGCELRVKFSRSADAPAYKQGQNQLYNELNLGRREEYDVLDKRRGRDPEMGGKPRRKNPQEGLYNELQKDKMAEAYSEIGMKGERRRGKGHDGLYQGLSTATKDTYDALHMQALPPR

T2: K4 Chimeric Receptor
T2 chain: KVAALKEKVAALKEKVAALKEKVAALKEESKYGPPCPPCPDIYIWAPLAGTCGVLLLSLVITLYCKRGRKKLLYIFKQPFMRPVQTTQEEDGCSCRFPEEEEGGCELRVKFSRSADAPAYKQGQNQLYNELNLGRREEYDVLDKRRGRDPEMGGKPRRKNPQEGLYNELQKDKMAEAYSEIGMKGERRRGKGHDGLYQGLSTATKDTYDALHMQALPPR

B1: Fmc63 HCCT K4 switch (Fab, V domains shown)
VH: EVKLQESGPGLVAPSQSLSVTCTVSGVSLPDYGVSWIRQPPRKGLEWLGVIWGSETTYYNSALKSRLTIIKDNSKSQVFLKMNSLQTDDTAIYYCAKHYYYGGSYAMDYWGQGTSVTVSS
VL: DIQMTQTTSSLSASLGDRVTISCRASQDISKYLNWYQQKPDGTVKLLIYHTSRLHSGVPSRFSGSGSGTDYSLTISNLEQEDIATYFCQQGNTLPYTFGGGTKLEIKR
B2: Fmc63 HCCT E4 switch (Fab, V domains shown)
VH: B1 VH
VL: B1 VL

How the values were obtained:
E4 Chimeric Receptor = target: T1, E4 Chimeric Receptor; test: cell-based or functional assay
K4 Chimeric Receptor = target: T2, K4 Chimeric Receptor; test: cell-based or functional assay

Binder | EC50 (nM) of switch in cytotoxicity assay (LDH release), E4 CAR-T cells against CD19-positive Raji luc cells (E4 Chimeric Receptor) | EC50 (nM) of switch in cytotoxicity assay (LDH release), K4 CAR-T cells against CD19-positive Raji luc cells (K4 Chimeric Receptor)
B1 | 0.00432 nM | 
B2 |  | 0.0507 nM

From US20180118808A1 (CALIFORNIA INSTITUTE FOR BIOMEDICAL RESEARCH, published 2018)
